From patent CN116836277A come the findings set out here.

Assay [1] addresses E2-Albumin偶联物. Description: indirect ELISA, E2-Albumin coated 3 ug/ml, antibody 31.3 ng/ml.
Assay [2] addresses E2-Albumin偶联物. Description: indirect ELISA, E2-Albumin coated 3 ug/ml, antibody 7.81 ng/ml.
The target in assay [3] is E2-Albumin偶联物. The experiment in a line: indirect ELISA, E2-Albumin coated 3 ug/ml, antibody 62.5 ng/ml.
Assay [4] concerns the target E2-Albumin偶联物. The experiment in a line: indirect ELISA, E2-Albumin coated 3 ug/ml, antibody 0.00 ng/ml (blank).
Assay [5] concerns the target E2-Albumin偶联物. The experiment in a line: indirect ELISA, E2-Albumin coated 3 ug/ml, antibody 15.63 ng/ml.
In assay [6] the target is E2-Albumin偶联物. The experiment in a line: biosensor (AMC sensor), antibody immobilised at 5 ug/ml, E2-Albumin in gradient.
The target in assay [7] is E2-Albumin偶联物. Description: indirect ELISA, E2-Albumin coated 3 ug/ml, antibody 125 ng/ml.

B1: Anti-E2 7A4mut2 (antibody, V domains shown)
VH: QVRLQESGPSLVKPSQTLSLTCTISGFSISGNAITWVRQAPGEVPEWLGGVDNRGSAYYSPALRSRLSITRDTSKSQVSLSLYGVTVEDTAVYYCGRGVWGVDGAGYAHDYWGPGLLVTVST
VL: QAVVTQLSSVSGSLGQRVSLTCSGSSSNVGSHSVDWFQKLSESGLRIVIYGTRNRPSGVPDRFSGSKSGNTATLTITSLQTEDEADYYCATSDSTTMTYIFGDGTRLTALG
Take B1: the OD450 in the assay with E2-Albumin偶联物 [1] was found to be 1.69 OD450; in the assay with E2-Albumin偶联物 [2], 0.497 OD450; in the assay with E2-Albumin偶联物 [3] it was 1.94 OD450; in the assay with E2-Albumin偶联物 [4], 0.065 OD450; with E2-Albumin偶联物 [5] it was 0.953 OD450; with E2-Albumin偶联物 [7], 2.25 OD450. This molecule showed a Kd in the assay with E2-Albumin偶联物 [6] of 188 pM. Further, in the assay with E2-Albumin偶联物 [6], the koff came to 0.00032 s⁻¹. Moreover, the kon with E2-Albumin偶联物 [6] came to 1.7e+06 M⁻¹ s⁻¹.

B2: Anti-E2 7A4mut4 (antibody, V domains shown)
VH: QVRLQESGPSLVKPSQTLSLTCTISGFSLSGNAITWVRQAPGEVPEWLGGVDNRGSAYYSPALRSRLSITRDTSKSQVSLSLYGVTVEDTAVYYCGRGVWGVDGAGYAHDYWGPGLLVTVST
VL: QAVVTQLSSVSGSLGQRVSLTCSGSSSNVGSHSVDWFQKLSESGLRIVLYGTRNRPSGVPDRFSGSKSGNTATLTITSLQTEDEADYYCATSDSTTMTYIFGDGTRLTALG
Consider B2, for which the OD450 is 1.31 OD450 with E2-Albumin偶联物 [1]; 0.461 OD450 with E2-Albumin偶联物 [2]; 2.12 OD450 with E2-Albumin偶联物 [3]; 0.047 OD450 with E2-Albumin偶联物 [4]; 0.806 OD450 with E2-Albumin偶联物 [5]; 2.26 OD450 with E2-Albumin偶联物 [7]. Besides, in the assay with E2-Albumin偶联物 [6], the Kd worked out at 214 pM. The koff with E2-Albumin偶联物 [6] worked out at 0.00044 s⁻¹. The kon with E2-Albumin偶联物 [6] is 2.06e+06 M⁻¹ s⁻¹.

B3: Anti-E2 7A4mut1 (antibody)
heavy: QVRLQESGPSLVKPSQTLSLTCTISGFSLSGNAITWVRQAPGEVPEWLGGVDNRGSAYYSPALRSRLSITRDTSKSQVSLSLYGVTVEDTAVYYCGRGVWGVDGAGYAHDYWGPGLLVTVSTASTTPPKVYPLTSCCGDTSSSIVTLGCLVSSYMPEPVTVTWNSGALTSGVHTFPAILQSSGLYSLSSVVTVPASTSGAQTFICNVAHPASSTKVDKRVGLSSDYSKCSKPPCVSRPSVFIFPPKPKDSLMITGTPEVTCVVVDVGQGDPEVQFSWFVDNVEVRTARTKPREEQFNSTFRVVSALPIQHDHWTGGKEFKCKVHSKGLPAPIVRTISRAKGQAREPQVYVLAPPQEELSKSTLSVTCLVTGFYPDYIAVEWQRARQPESEDKYGTTTSQLDADGSYFLYSRLRVDKSSWQRGDTYACVVMHEALHNHYTQKSISKPPGK
light: QAVVTQLSSVSGSLGQRVSLTCSGSSSNVGSHSVDWFQKLSESGLRIVIYGTRNRPSGVPDRFSGSKSGNTATLTITSLQTEDEADYYCATSDSTTMTYIFGDGTRLTALGQPKSAPSVTLFPPSTEELSTNKATVVCLINDFYPGSVNVVWKADGSTINQNVKTTQASKQSNSKYAASSYLTLTGSEWKSKSSYTCEVTHEGSTVTKTVKPSECS
Consider B3, for which the OD450 with E2-Albumin偶联物 [1] came to 0.94 OD450; with E2-Albumin偶联物 [2], 0.22 OD450; with E2-Albumin偶联物 [3] it was 1.52 OD450; in the assay with E2-Albumin偶联物 [4], 0.01 OD450; with E2-Albumin偶联物 [5], 0.366 OD450; with E2-Albumin偶联物 [7], 2.06 OD450. Also, the Kd in the assay with E2-Albumin偶联物 [6] was 9840 pM. This molecule also registered a koff with E2-Albumin偶联物 [6] of 0.00022 s⁻¹. In addition, the kon with E2-Albumin偶联物 [6] is 22400 M⁻¹ s⁻¹.

B4: Anti-E2 7A4mut3 (antibody)
heavy: QVRLQESGPSLVKPSQTLSLTCTISGFSLSGNAITWVRQAPGEVPEWLGGVDNRGSAYYSPALRSRLSITRDTSKSQVSLSLYGVTVEDTAVYYCGRGVWGVDGAGYAHDYWGPGLLVTVSTASTTPPKVYPLTSCCGDTSSSIVTLGCLVSSYMPEPVTVTWNSGALTSGVHTFPAILQSSGLYSLSSVVTVPASTSGAQTFICNVAHPASSTKVDKRVGLSSDYSKCSKPPCVSRPSVFIFPPKPKDSLMITGTPEVTCVVVDVGQGDPEVQFSWFVDNVEVRTARTKPREEQFNSTFRVVSALPIQHDHWTGGKEFKCKVHSKGLPAPIVRTISRAKGQAREPQVYVLAPPQEELSKSTLSVTCLVTGFYPDYIAVEWQRARQPESEDKYGTTTSQLDADGSYFLYSRLRVDKSSWQRGDTYACVVMHEALHNHYTQKSISKPPGK
light: QAVVTQLSSVSGSLGQRVSITCSGSSSNVGSHSVDWFQKLSESGLRIVIYGTRNRPSGVPDRFSGSKSGNTATLTITSLQTEDEADYYCATSDSTTMTYIFGDGTRLTALGQPKSAPSVTLFPPSTEELSTNKATVVCLINDFYPGSVNVVWKADGSTINQNVKTTQASKQSNSKYAASSYLTLTGSEWKSKSSYTCEVTHEGSTVTKTVKPSECS
For the molecule B4, the OD450 was found to be 1.6 OD450 with E2-Albumin偶联物 [1]; 0.508 OD450 in the assay with E2-Albumin偶联物 [2]; 2.16 OD450 with E2-Albumin偶联物 [3]; 0.023 OD450 with E2-Albumin偶联物 [4]; 0.979 OD450 in the assay with E2-Albumin偶联物 [5]; 2.27 OD450 with E2-Albumin偶联物 [7]. The molecule further returned a Kd in the assay with E2-Albumin偶联物 [6] of 234 pM. Further, the koff in the assay with E2-Albumin偶联物 [6] was 0.00038 s⁻¹. Further, the kon with E2-Albumin偶联物 [6] worked out at 1.63e+06 M⁻¹ s⁻¹.
